Reference: patent US20240092914A1 (NEW PARADIGM BIOSCIENCES USA, published 2024)
Several values for one entry are separate records, joined by “and”; a condition that tells them apart may be missing. Identical values can stand only once.

T1: human BDCA2 on human plasmacytoid dendritic cells (human, UniProt Q8WTT0 1-213)
T1 sequence (looked up): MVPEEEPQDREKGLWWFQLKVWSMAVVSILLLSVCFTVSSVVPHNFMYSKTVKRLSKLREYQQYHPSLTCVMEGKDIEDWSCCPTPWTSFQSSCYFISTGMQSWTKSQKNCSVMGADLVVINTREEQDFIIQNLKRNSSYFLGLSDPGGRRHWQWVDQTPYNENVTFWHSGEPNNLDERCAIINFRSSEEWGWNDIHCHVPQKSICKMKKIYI

T2: recombinant human BDCA2 extracellular domain (UniProt Q8WTT0, residues 45-213) (human, UniProt Q8WTT0 45-213)
T2 construct: range 45-213; also called recombinant BDCA2 proteins; BDCA2 proteins
T2 sequence (looked up): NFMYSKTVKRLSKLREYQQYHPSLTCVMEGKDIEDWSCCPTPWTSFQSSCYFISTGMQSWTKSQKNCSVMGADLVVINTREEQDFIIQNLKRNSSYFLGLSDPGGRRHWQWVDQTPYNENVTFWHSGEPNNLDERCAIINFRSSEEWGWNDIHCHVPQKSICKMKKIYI

T3: recombinant rhesus BDCA2 extracellular domain (UniProt A0A1D5QFY5, residues 45-212) (rhesus, UniProt G7N5W2 45-211)
T3 construct: also called Monkey BDCA2
T3 sequence: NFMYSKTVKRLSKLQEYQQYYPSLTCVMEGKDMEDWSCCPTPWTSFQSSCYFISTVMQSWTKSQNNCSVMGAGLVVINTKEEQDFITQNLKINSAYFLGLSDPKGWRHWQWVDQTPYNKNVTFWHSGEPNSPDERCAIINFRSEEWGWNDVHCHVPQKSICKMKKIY

T4: BDCA-2 antigen (Biorbyt CLEC4C orb358925) (human, UniProt Q8WTT0)
T4 construct: recombinant protein, construct not described; It is kept apart from m4 because it is a different preparation; also called human BDCA2 antigen
T4 sequence (antigen, looked up): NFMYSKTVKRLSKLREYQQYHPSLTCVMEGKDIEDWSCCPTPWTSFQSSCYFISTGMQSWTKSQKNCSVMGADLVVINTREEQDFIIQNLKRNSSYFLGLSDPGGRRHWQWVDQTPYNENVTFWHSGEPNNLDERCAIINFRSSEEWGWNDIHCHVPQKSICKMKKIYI


Columns and labels:
[1] = target: human BDCA2 on human plasmacytoid dendritic cells (human) (UniProt Q8WTT0); assay: flow cytometry on human PBMC with APCCy7-labelled control antibody, gate Lin- then CD4+CD123+ (pDC)
[2] = target: T1, human BDCA2 on human plasmacytoid …; assay: cell-based or functional assay
[3] = target: T2, recombinant human BDCA2 extracellular …; assay: SPR / in vitro binding to BDCA2 proteins (FIG. 7, FIG. 8)
[4] = target: T2, recombinant human BDCA2 extracellular …; assay: SPR (Biacore), antibody captured on Protein A chip, recombinant BDCA2 ECD flowed over
Method: (§1) BDCA2 antibody binding kinetics were measured using a Biacore surface plasmon resonance (SPR) instrument (GE Life Sciences). Briefly, anti-BDCA2 antibodies were captured on a Protein A sensor chip (GE Life Sciences). The recombinant BDCA2 proteins were then flowed over the captured antibodies over a range of concentrations, at a rate of 50 μL/minute. The data was analyzed to determine kinetic constants using the BIAevaluation software package (GE Life Sciences).

[5] = target: T3, recombinant rhesus BDCA2 extracellular …; assay: as above
Method: as §1

[6] = target: T2, recombinant human BDCA2 extracellular …; assay: SPR (Biacore), antibody captured on anti-human Fc chip, recombinant BDCA2 flowed over; small-scale batch
Method: BDCA2 antibody binding kinetics were measured using a Biacore surface plasmon resonance (SPR) instrument (GE Life Sciences). Briefly, anti-BDCA2 antibodies were captured on an anti-human Fc chip. The recombinant BDCA2 proteins were then flowed over the captured antibodies over a range of concentrations, at a rate of 50 μL/minute. The data was analyzed to determine kinetic constants using the BIAevaluation software package (GE Life Sciences). The sensorgrams of SPR based affinity testing for all 24 antibodies are shown in FIG. 55, and the biophysical characteristics of all 24 antibodies are summarized in Table 5.

[7] = target: T4, BDCA-2 antigen (Biorbyt CLEC4C …); assay: ELISA, plate coated with BDCA-2 antigen, detection with HRP anti-human IgG Fc, A450 corrected by A590
Method: Briefly, Nunc MaxiSorp 96-well plates were coated with BDCA-2 antigen (Biorbyt CLEC4C orb358925) overnight at 4° C. After washing, the plates were blocked by the Blocking Buffer (1% BSA in 1×PBS). […] After 1 hour incubation at room temperature, the plates were washed and added with the secondary antibody (HIRP-conjugated Goat anti-Human IgG Fc antibody; ThermoFisher A18829) for 1 hour at RT. The signals were developed by adding TMB substrate reagent (ThermoFisher 34021). The signals at 450 nm and 590 nm were read on the plate reader.

[8] = target: T2, recombinant human BDCA2 extracellular …; assay: SPR (Biacore), antibody as ligand, HsCD303HIS as sample, 25 °C, 1:1 Binding fit; Table 1 prints 7.29 x 10^5, but the sheet's exponent fits the printed kd 3.271E-4 and KD 4.487E-9

% of the gated Lin-CD123+ cells in Q2 (CD123+, APCCy7+) [1] [%] | IC50 of inhibition of IFNα production by CpG-stimulated human PBMC (multiple donors) [2] [ng/mL] | Kd [3] [nM] | koff [3] [s⁻¹] | kon [3] [M⁻¹ s⁻¹] | koff [4] [s⁻¹] | Kd [5] [nM] | koff [5] [s⁻¹] | kon [5] [M⁻¹ s⁻¹] | Kd [6] [nM] | koff [6] [s⁻¹] | kon [6] [M⁻¹ s⁻¹] | EC50 (read off the curve) [7] | kon [8] [M⁻¹ s⁻¹] | Molecule
7.29 | – | – | – | – | – | – | – | – | – | – | – | – | – | mIgG1-APCCy7 (antibody)
– | ~3 | ~1 | ~0.00033 | ~210000 | 0.000327 | 9.2 | 0.00157 | 170000 | 1.19 | 0.000156 | 131000 | ~0.5 nM and ~0.3 nM | 72900 | NPB-303 humanized anti-BDCA2 monoclonal antibody (huIgG1) (antibody, V domains shown, Humanized from mouse mAb 12b, human IgG1/kappa) VH: EVQLVESGGGLVKPGGSLRLSCAASGFTFSTMSWVRQAPGKRLEWVASISSGGSTYYPDSVKGRFTISRDNAKNSLYLQMNSLRAEDTAVYYCARPSYDGYSSWFAYWGQGTLVTVSS VL: EIVLTQSPATLSLSPGERATLSCKASQSVDYDGDGFMNWYQQKPGQAPRLLIYTASNLESGVPARFSGSGSGTDFTLTISSLEPEDFAVYYCQQSNEDPWTFGGGTKVEIKR
